Data reported in patent publication US9266930.
Read-outs that look alike come from different tables or passages of the source.

Key:
[1] = target: HLA-DR1 (DRB1*0101) (human)
[2] = target: HLA-DR3 (DRB1*0301) (human)
[3] = target: T1, HLA-DR5w12 (DRB1*1201) (human)
T1 chain 1: not shown
T1 chain 2: not shown

[4] = target: T2, HLA-DR7 (DRB1*0701) (human)
T2 chain 1: not shown
T2 chain 2: not shown

[5] = target: T3, HLA-DR8w2 (DRB1*0802) (human)
T3 chain 1: not shown
T3 chain 2: not shown

[6] = target: T4, HLA-DRw53 (DRB4*0101) (human)
T4 chain 1: not shown
T4 chain 2: not shown

[7] = target: T5, HLA-DR6w19 (DRB1*1302) (human)
T5 chain 1: not shown
T5 chain 2: not shown

[8] = target: T6, HLA-DR9 (DRB1*0901) (human)
T6 chain 1: not shown
T6 chain 2: not shown

[9] = target: HLA-DR4w4 (DRB1*0401) (human)
HLA-A*1101 (human) [10] = test: competition with 125I-labelled standard peptide for purified HLA, gel filtration
[11] = target: HLA-DR2w2β2 (DRB5*0101) (human)
[12] = target: HLA-DR5w11 (DRB1*1101) (human)
HLA-A*1101 (Human) [13] = target: HLA-A*1101 (Human)
[14] = target: HLA-DR4w15 (DRB1*0405) (human)
HLA-A*1101 (Human) [15] = target: HLA-A*1101 (Human); remark: listed apart in the source

## LGNVKYLVIVFLIFF (modifications not checked)
[1]
  binding affinity ratio (IC50 of standard peptide / IC50 of test peptide): 0.0006
[2]
  binding affinity ratio (IC50 of standard peptide / IC50 of test peptide): -0.0008

## AVPLAMKLIQQLNLN (modifications not checked) [… (Pf SSP2 68)]
[3]
  binding affinity ratio (IC50 of standard peptide / IC50 of test peptide): 0.13
[4]
  binding affinity ratio (IC50 of standard peptide / IC50 of test peptide): 0.077
[5]
  binding affinity ratio (IC50 of standard peptide / IC50 of test peptide): 0.04
[6]
  binding affinity ratio (IC50 of standard peptide / IC50 of test peptide): 0.035

## MKILSVFFLALFFII (modifications not checked) [… (Pf EXP 1)]
[3]
  binding affinity ratio (IC50 of standard peptide / IC50 of test peptide): 0.0023
[7]
  binding affinity ratio (IC50 of standard peptide / IC50 of test peptide): 0.0019
[4]
  binding affinity ratio (IC50 of standard peptide / IC50 of test peptide): 0.036
[5]
  binding affinity ratio (IC50 of standard peptide / IC50 of test peptide): 0.0023
[8]
  binding affinity ratio (IC50 of standard peptide / IC50 of test peptide): 0.006

## VKYLVIVFLIFFDLF (modifications not checked)
[1]
  binding affinity ratio (IC50 of standard peptide / IC50 of test peptide): 0.0001
[9]
  binding affinity ratio (IC50 of standard peptide / IC50 of test peptide): 0.003

## GVSSKKKNK (modifications not checked)
HLA-A*0301 (human)
  binding affinity ratio (IC50 of standard peptide / IC50 of test peptide): 0.0001

## SIQDSLKESR (modifications not checked)
HLA-A*1101 (human) [10]
  binding affinity ratio (IC50 of standard peptide / IC50 of test peptide): 0.0009

## CGVWDEWSPCSVTCG (modifications not checked)
[1]
  binding affinity ratio (IC50 of standard peptide / IC50 of test peptide): 0.0001
[11]
  binding affinity ratio (IC50 of standard peptide / IC50 of test peptide): -0.0006
[9]
  binding affinity ratio (IC50 of standard peptide / IC50 of test peptide): -0.0007
[12]
  binding affinity ratio (IC50 of standard peptide / IC50 of test peptide): -0.0002

## LIDVHDLISDMIKKE (modifications not checked) [… (Pf EXP 47)]
[3]
  binding affinity ratio (IC50 of standard peptide / IC50 of test peptide): 0.0001
[7]
  binding affinity ratio (IC50 of standard peptide / IC50 of test peptide): 0.0004
[4]
  binding affinity ratio (IC50 of standard peptide / IC50 of test peptide): 0.01
[5]
  binding affinity ratio (IC50 of standard peptide / IC50 of test peptide): 0.0096
[8]
  binding affinity ratio (IC50 of standard peptide / IC50 of test peptide): 0.043
[6]
  binding affinity ratio (IC50 of standard peptide / IC50 of test peptide): 0.094

## KGTGSGVSSK (modifications not checked) [… (P. falciparum EXP, position 27)]
HLA-A*0301 (human)
  binding affinity ratio (IC50 of standard peptide / IC50 of test peptide): 0.0005

## RDGNNEDNEK (modifications not checked) [… (P. falciparum CSP, position 95)]
HLA-A*1101 (Human) [13]
  binding affinity ratio (IC50 of standard peptide / IC50 of test peptide): 0.0002

## LIDVHDLISDMIKKE (modifications not checked)
[2]
  binding affinity ratio (IC50 of standard peptide / IC50 of test peptide): 0.01
[14]
  binding affinity ratio (IC50 of standard peptide / IC50 of test peptide): 0.0076

## AGGIAGGLALLACAG (modifications not checked) [… (Pf SSP2 513)]
[3]
  binding affinity ratio (IC50 of standard peptide / IC50 of test peptide): 0.0007
[4]
  binding affinity ratio (IC50 of standard peptide / IC50 of test peptide): -0.0003
[5]
  binding affinity ratio (IC50 of standard peptide / IC50 of test peptide): 0.0004
[6]
  binding affinity ratio (IC50 of standard peptide / IC50 of test peptide): -0.0005

## LDYENDIEKK (modifications not checked)
HLA-A*1101 (Human) [15]
  binding affinity ratio (IC50 of standard peptide / IC50 of test peptide): 0.0002

## CGNGIQVRIK (modifications not checked) [… (Pf CSP 377, A11 motif peptide)]
HLA-A*1101 (Human) [13]
  binding affinity ratio (IC50 of standard peptide / IC50 of test peptide): 0.0002

## NGREGKDEDK (modifications not checked) [… (CSP 85)]
HLA-A*1101 (Human) [15]
  binding affinity ratio (IC50 of standard peptide / IC50 of test peptide): 0.0002

## AGGLALLACAGLAYK (modifications not checked)
[9]
  binding affinity ratio (IC50 of standard peptide / IC50 of test peptide): -0.0007
[12]
  binding affinity ratio (IC50 of standard peptide / IC50 of test peptide): -0.0002

## GVSSKKKNKK (modifications not checked)
HLA-A*0301 (human)
  binding affinity ratio (IC50 of standard peptide / IC50 of test peptide): 0.0011

## NTRVLNELNY (modifications not checked) [… (CSP 31)]
HLA-A*1101 (Human) [13]
  binding affinity ratio (IC50 of standard peptide / IC50 of test peptide): 0.0002

## ILSVFFLALFFIIFN (modifications not checked)
[11]
  binding affinity ratio (IC50 of standard peptide / IC50 of test peptide): 0.0091
[2]
  binding affinity ratio (IC50 of standard peptide / IC50 of test peptide): -0.0008
[14]
  binding affinity ratio (IC50 of standard peptide / IC50 of test peptide): -0.0009

## WSPCSVTCGK (modifications not checked)
HLA-A*1101 (human) [10]
  binding affinity ratio (IC50 of standard peptide / IC50 of test peptide): 0.0002

## IFNKESLAEK (modifications not checked) [… (P. falciparum EXP, position 15)]
HLA-A*0301 (human)
  binding affinity ratio (IC50 of standard peptide / IC50 of test peptide): 0.0005

## DGNNEDNEK (modifications not checked) [… (Pf CSP 96, A11 motif peptide)]
HLA-A*1101 (Human) [13]
  binding affinity ratio (IC50 of standard peptide / IC50 of test peptide): 0.0002

## IGPFMKAVCVEVEKT (modifications not checked) [… (Pf SSP2 227)]
[3]
  binding affinity ratio (IC50 of standard peptide / IC50 of test peptide): 0.0038
[7]
  binding affinity ratio (IC50 of standard peptide / IC50 of test peptide): 0.0003
[4]
  binding affinity ratio (IC50 of standard peptide / IC50 of test peptide): 0.0019
[5]
  binding affinity ratio (IC50 of standard peptide / IC50 of test peptide): -0.0003
[8]
  binding affinity ratio (IC50 of standard peptide / IC50 of test peptide): 0.082
[6]
  binding affinity ratio (IC50 of standard peptide / IC50 of test peptide): 0.07

## LDYENDIEK (modifications not checked)
HLA-A*1101 (Human) [15]
  binding affinity ratio (IC50 of standard peptide / IC50 of test peptide): 0.0002

## RHPFKIGSSDPADNA (modifications not checked) [… (Pf EXP 107)]
[3]
  binding affinity ratio (IC50 of standard peptide / IC50 of test peptide): 0.0001
[7]
  binding affinity ratio (IC50 of standard peptide / IC50 of test peptide): 0.0003
[4]
  binding affinity ratio (IC50 of standard peptide / IC50 of test peptide): -0.0003
[5]
  binding affinity ratio (IC50 of standard peptide / IC50 of test peptide): 0.038
[8]
  binding affinity ratio (IC50 of standard peptide / IC50 of test peptide): 0.095

## HDLISDMIK (modifications not checked)
HLA-A*0301 (human)
  binding affinity ratio (IC50 of standard peptide / IC50 of test peptide): 0.0001

## CVEVEKTASCGVWDE (modifications not checked)
[1]
  binding affinity ratio (IC50 of standard peptide / IC50 of test peptide): 0.0004
[11]
  binding affinity ratio (IC50 of standard peptide / IC50 of test peptide): -0.0005
[14]
  binding affinity ratio (IC50 of standard peptide / IC50 of test peptide): -0.0009
[9]
  binding affinity ratio (IC50 of standard peptide / IC50 of test peptide): 0.0021
[12]
  binding affinity ratio (IC50 of standard peptide / IC50 of test peptide): -0.0002

## NLYNELEMNY (modifications not checked) [… (CSP 46)]
HLA-A*1101 (Human) [15]
  binding affinity ratio (IC50 of standard peptide / IC50 of test peptide): 0.0002

## AGGLALLACAGLAYK (modifications not checked) [… (Pf SSP2 517)]
[3]
  binding affinity ratio (IC50 of standard peptide / IC50 of test peptide): 0.0051
[4]
  binding affinity ratio (IC50 of standard peptide / IC50 of test peptide): 0.0009
[5]
  binding affinity ratio (IC50 of standard peptide / IC50 of test peptide): 0.0003
[6]
  binding affinity ratio (IC50 of standard peptide / IC50 of test peptide): -0.0005

## NDIEKKICK (modifications not checked) [NDIEKKIK (CSP 401)]
HLA-A*1101 (Human) [13]
  binding affinity ratio (IC50 of standard peptide / IC50 of test peptide): 0.0002

## VVILTDGIPDSIQDS (modifications not checked) [… (Pf SSP2 157)]
[3]
  binding affinity ratio (IC50 of standard peptide / IC50 of test peptide): 0.0001
[4]
  binding affinity ratio (IC50 of standard peptide / IC50 of test peptide): -0.0003
[5]
  binding affinity ratio (IC50 of standard peptide / IC50 of test peptide): -0.0003
[6]
  binding affinity ratio (IC50 of standard peptide / IC50 of test peptide): 0.0114

## NGDNGREGK (modifications not checked) [… (CSP 82)]
HLA-A*1101 (Human) [15]
  binding affinity ratio (IC50 of standard peptide / IC50 of test peptide): 0.0002

## HDLISDMIKK (modifications not checked)
HLA-A*0301 (human)
  binding affinity ratio (IC50 of standard peptide / IC50 of test peptide): 0.0009

## TVLLGGVGLVLYNTE (modifications not checked)
[1]
  binding affinity ratio (IC50 of standard peptide / IC50 of test peptide): 0.49
[11]
  binding affinity ratio (IC50 of standard peptide / IC50 of test peptide): -0.0005
[14]
  binding affinity ratio (IC50 of standard peptide / IC50 of test peptide): -0.0009
[12]
  binding affinity ratio (IC50 of standard peptide / IC50 of test peptide): -0.0002

## EVNKRKSKY (modifications not checked) [… (P. falciparum EXP, position 66)]
HLA-A*1101 (Human) [13]
  binding affinity ratio (IC50 of standard peptide / IC50 of test peptide): 0.0002

## ANQLVVILTDGIPDS (modifications not checked) [… (Pf SSP2 153)]
[3]
  binding affinity ratio (IC50 of standard peptide / IC50 of test peptide): 0.0003
[7]
  binding affinity ratio (IC50 of standard peptide / IC50 of test peptide): 0.007
[4]
  binding affinity ratio (IC50 of standard peptide / IC50 of test peptide): 0.0054
[5]
  binding affinity ratio (IC50 of standard peptide / IC50 of test peptide): -0.0002
[8]
  binding affinity ratio (IC50 of standard peptide / IC50 of test peptide): 0.042

## SVTCGKGTR (modifications not checked)
HLA-A*1101 (human) [10]
  binding affinity ratio (IC50 of standard peptide / IC50 of test peptide): 0.0009
